Test results: patent publication US20060128618A1 (APLAGEN, published 2006)
*1 amine or outer side, *2 acyl side, *3 side chain or, on linkers, in order; H or OH if unused. Bridges are numbered along the chain shown (N, C = ends). Where no end group is shown, it is not given here. [ ]: non-standard residue; d: D form. Als = 5-aminolevulinic acid, O=C(CCC(=O)[*:2])CN[*:1]

T1: erythropoietin receptor (UniProt P19235 25-508, limits assumed)
T1 sequence (looked up): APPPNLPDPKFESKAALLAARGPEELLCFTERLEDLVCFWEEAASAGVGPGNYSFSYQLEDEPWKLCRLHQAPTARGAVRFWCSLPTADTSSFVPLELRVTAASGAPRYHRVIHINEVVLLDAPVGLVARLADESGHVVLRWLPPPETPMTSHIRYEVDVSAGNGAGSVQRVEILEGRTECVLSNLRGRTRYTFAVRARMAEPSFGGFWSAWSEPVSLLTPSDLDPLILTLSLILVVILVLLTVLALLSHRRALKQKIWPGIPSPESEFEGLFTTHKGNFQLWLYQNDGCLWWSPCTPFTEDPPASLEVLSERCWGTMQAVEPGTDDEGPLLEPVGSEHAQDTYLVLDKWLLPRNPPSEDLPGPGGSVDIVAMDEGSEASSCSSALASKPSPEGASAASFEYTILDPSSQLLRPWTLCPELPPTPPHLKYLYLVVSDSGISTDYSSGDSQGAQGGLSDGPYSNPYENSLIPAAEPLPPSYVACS


molecular target: T1, erythropoietin receptor; test: cell-based or functional assay

GGTYSCHFGRLTWVCKKQGG (disulfide 6-15 (inferred)) [peptide SEQ. ID NO. 6 GGTYSCHFGRLTWVCKKQGG] and GGTYSCHF[Als]LTWVCKPQGG (disulfide 6-14 (inferred)) [peptide SEQ. ID NO. 7 GGTYSCHF-(Als)-LTWVCKPQGG] are within 1.5-fold of each other in “EC50, proliferation assay with TF-1 cells by MTT” value (“EC50, proliferation assay” for short): 4.97 µM for the first, 5.26 µM for the second.

GGTYSCHFGKLTWVCKPQGG (disulfide 6-15 (inferred)) [peptide SEQ. ID NO. 4 GGTYSCHFGKLTWVCKPQGG] and GGTYSCHF[Als]LTWVCKKQGG (disulfide 6-14 (inferred)) [peptide SEQ. ID NO. 8 GGTYSCHF-(Als)-LTWVCKKQGG] are within 1.5-fold of each other in “EC50, proliferation assay” value: 4.66 µM for the first, 5 µM for the second.

Compared with GGTYSCHFAKLTWVCKKQGG (disulfide 6-15 (inferred)) [peptide GGTYSCHFAKLTWVCKKQGG], GGTYSCHFGKLTWVCKKQGG (disulfide 6-15 (inferred)) [peptide SEQ. ID NO. 2 GGTYSCHFGKLTWVCKKQGG] is 1.5-fold lower in “EC50, proliferation assay” value: 5.04 µM for the first, 3.28 µM for the second.

Compared with GGTYSCHFGRLTWVCKPQGG (disulfide 6-15 (inferred)) [peptide SEQ. ID NO. 5 GGTYSCHFGRLTWVCKPQGG], GGTYSCHFGPLTWVCKKQGG (disulfide 6-15 (inferred)) [peptide GGTYSCHFGPLTWVCKKQGG] is 2-fold lower in “EC50, proliferation assay” value: 5.16 µM for the first, 2.52 µM for the second.
